Laboratory results reported in paper PMC6312923 (Life Science Alliance, 2018).

Columns and labels:
[1] = biological target: T1, recombinant PCNA (Homo sapiens, UniProt P12004); assay: FP assay, direct binding of TAMRA-labelled PIP box peptides to PCNA
T1 construct: made in house; host or cells: Escherichia coli BL21 (DE3)

[2] = tested on: PCNA; assay: X-ray crystal structure of PCNA/PIP peptide complexes; assay type: binding, human; settings: PCNA trimer; Cdt2 3.5 Å (6QC0), Cdt1 3.4 Å (6QCG)
Procedure: The protein solution at 17 mg·ml^−1 was pre-incubated with an equimolar amount of peptide, and 0.1 μl of this solution was mixed with 0.1 μl of reservoir solution and equilibrated against a 30 μl reservoir. Crystals for the Cdt2 complex were obtained in 10% (wt/vol) PEG 6000 and 100 mM MES/HCl, pH 6.0. Crystals for the Cdt1 complex were obtained in 15% (wt/vol) PEG 400, 100 mM calcium acetate, and 100 mM MES/HCl, pH 6.0. Crystals appeared at 4°C within 72 h. Crystals were briefly transferred to a cryo-protectant solution containing the reservoir solution and 25% (wt/vol) PEG200 and vitrified by dipping in liquid nitrogen.
X-ray data were collected on beamline ID29 at the European Synchrotron Radiation Facility. The images were integrated with XDS ([Kabsch, 2010]) and merged and scaled with AIMLESS ([Evans, 2011]). […] The models were built using COOT ([Emsley et al, 2010]) and refined with REFMAC ([Murshudov et al, 2011]) in iterative cycles. Model re-building and refinement parameter adjustment were performed in PDB-REDO ([Joosten et al, 2014]); homology-based hydrogen bond restraints ([van Beusekom et al, 2018]) were used at some stages of the procedure. The quality of the models was evaluated by MOLPROBITY ([Chen et al, 2010]). […]

[3] = biological target: T2, PCNA (recombinant, for the in vitro binding assays; free or loaded on DNA) (human, UniProt P12004 1-261); assay: pull-down; PCNA loaded by RFC (2 mM ATP, 37°C, 1 h) on nicked circular DNA beads, washed; beads incubated with purified Cdt1-3FLAG or CRL4^Cdt2 alone at 4°C for 1 h in HBS buffer (10 mM Hepes pH 7.4, 10 mM MgCl2, 0.2 mM EDTA, 0.05% Tween 20, 0.15 M NaCl); bound proteins by Western blot; settings: both partners purified
T2 construct: PCNA, human, purified essentially as a trimer as described (Fukuda et al, 1995); also called free PCNA; PCNA^(on DNA); source: E. coli Rosetta(DE3) transformed with pT7-PCNA, purified (Resource Q, Superdex 200, Mono Q)

[4] = tested on: PCNA loaded on nicked circular DNA (PCNA^on DNA); assay: Binding of purified Cdt1 and CRL4^Cdt2 to PCNA loaded on ncDNA beads; design: species or system human; settings: RFC +, 4°C 1 h, n = 3 or n > 3
Procedure: In our in vitro conditions, three molecules of PCNA trimer were loaded on one plasmid DNA. […] The interaction was not mediated by RFC proteins bound on ncDNA (Fig 5D, lane 6).
Figure S5. […] The beads were then incubated with Cdt1 or CRL4^Cdt2 (Step 2; binding). (B) RFC-dependent loading of PCNA.
Closed circular (cc) DNA beads were prepared as described ([Higashi et al, 2012]). Briefly, single-stranded DNA templates prepared using pBluescript II KS(−) were annealed with a biotinated oligonucleotide primer (5′-[…] [biotin-dT][…]-3′). After second-strand synthesis and ligation, covalently cc double-stranded DNA was purified by CsCl/EtBr density gradient centrifugation, incubated with streptavidin, and bound to biotin-sepharose beads to produce the cc DNA beads (around 100 ng per 1 μl bed volume of beads). A single nick was introduced by Nb.BbvCI (New England Biolabs) treatment to produce the ncDNA beads. As control beads, biotin-sepharose beads were incubated with streptavidin alone (sa-beads).
The sa-beads were treated in the same way and used as control beads. The beads were incubated with Cdt1 or CRL4^Cdt2 alone at 4°C for 1 h and washed with HBS buffer. The bound proteins were analysed on Western blotting. […] The purified nc DNA was run on 0.8% agarose gel in 1× TBE (Tris-borate-EDTA) buffer and detected with ethidium bromide.

[5] = tested on: UV-C–damaged sites in MCF7 cells; assay: FRAP of GFP-tagged proteins at sites of local UV-C damage in MCF7 cells; assay type: cell-based, human; settings: GFP-tagged, UV-C 50 J/m^2
[6] = tested on: free PCNA; assay: Binding of free PCNA to Cdt1 or CRL4^Cdt2 on anti-FLAG beads; design: species or system human; settings: 2 h at 4°C, Western blotting, three independent experiments
From the text: FLAG-tagged Cdt1 (Cdt1-3FLAG) and CRL4^Cdt2 (Cdt2-3FLAG) were expressed in insect cells and purified on anti-FLAG resin (Fig 5A).

T2 sequence (P12004 whole entry): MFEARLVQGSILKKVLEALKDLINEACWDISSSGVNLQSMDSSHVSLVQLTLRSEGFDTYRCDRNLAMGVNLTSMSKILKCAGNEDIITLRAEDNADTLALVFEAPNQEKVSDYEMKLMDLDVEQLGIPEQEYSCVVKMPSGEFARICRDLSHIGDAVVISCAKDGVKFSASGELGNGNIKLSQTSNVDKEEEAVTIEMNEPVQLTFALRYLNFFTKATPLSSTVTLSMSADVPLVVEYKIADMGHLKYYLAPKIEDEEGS
T1 sequence (P12004 whole entry): as above

Q: What does the source list for “MEQRRVTDFFARRR [Cdt1^PIP, Cdt1 PIP box peptide (1–14)]”?
A: relative affinity for PCNA, Cdt2^PIP versus Cdt1^PIP [1]: two orders of magnitude weaker; binding stoichiometry in crystal [2]: one peptide bound per monomer

B1: Cdt1-3FLAG (natural protein, human, UniProt Q9H211 1-546, looked up)
chain: MEQRRVTDFFARRRPGPPRIAPPKLACRTPSPARPALRAPASATSGSRKRARPPAAPGRDQARPPARRRLRLSVDEVSSPSTPEAPDIPACPSPGQKIKKSTPAAGQPPHLTSAQDQDTISELASCLQRARELGARVRALKASAQDAGESCTPEAEGRPEEPCGEKAPAYQRFHALAQPGLPGLVLPYKYQVLAEMFRSMDTIVGMLHNRSETPTFAKVQRGVQDMMRRRFEECNVGQIKTVYPASYRFRQERSVPTFKDGTRRSDYQLTIEPLLEQEADGAAPQLTASRLLQRRQIFSQKLVEHVKEHHKAFLASLSPAMVVPEDQLTRWHPRFNVDEVPDIEPAALPQPPATEKLTTAQEVLARARNLISPRMEKALSQLALRSAAPSSPGSPRPALPATPPATPPAASPSALKGVSQDLLERIRAKEAQKQLAQMTRCPEQEQRLQRLERLPELARVLRSVFVSERKPALSMEVACARMVGSCCTIMSPGEMEKHLLLLSELLPDWLSLHRIRTDTYVKLDKAADLAHITARLAHQTRAEEGL
notes: Cdt1, human; also called FLAG-tagged Cdt1; Cdt1-3FLAG (WT); source: Sf21 insect cells (baculovirus), purified (DEAE flowthrough, anti-FLAG resin, 3× FLAG peptide elution); not shown: 3FLAG, C-terminal, kept
Q: How did the “stoichiometry N” value [3] turn out when B1 was run?
A: The value was 2.04 Cdt1 molecules on one PCNA trimer.

B2: Cdt1: DNA replication licensing factor, FLAG-tagged, purified from insect cells; GFP-tagged in FRAP (protein, UniProt Q9H211 1-546, looked up)
DNA replication factor Cdt1: B1 chain
modifications: FLAG or eGFP tag
notes: DNA replication licensing factor, FLAG-tagged, purified from insect cells; GFP-tagged in FRAP
Q: What does the source list for B2?
A: bound protein [4]: 301 fmol; FRAP behaviour at UV-C–damaged sites [5]: dynamic interactions; binding of free PCNA to protein beads [6]: PCNA was detected
